The text below walks through data of patent US20250122508A1 (K2B THERAPEUTICS, published 2025).

First the molecules themselves.
B1: mouse CD47 on the surface of mouse red blood cells and CT26.CL25 cells (receptor, UniProt Q61735 19-303, looked up)
chain: QLLFSNVNSIEFTSCNETVVIPCIVRNVEAQSTEEMFVKWKLNKSYIFIYDGNKNSTTTDQNFTSAKISVSDLINGIASLKMDKRDAMVGNYTCEVTELSREGKTVIELKNRTVSWFSPNEKILIVIFPILAILLFWGKFGILTLKYKSSHTNKRIILLLVAGLVLTVIVVVGAILLIPGEKPVKNASGLGLIVISTGILILLQYNVFMTAFGMTSFTIAILITQVLGYVLALVGLCLCIMACEPVHGPLLISGLGIIALAELLGLVYMKFVASNQRTIQPPRNR
notes: whole, on cells; also called CD47 present on the surface of the CT26.CL25 cells

Test [1] concerns the target T1, Murine TSP-1 (7859-TH, R&D Systems) labeled with Cy5.5 (murine, UniProt P35441 19-1170, Cy5.5 label (site not stated)).
T1 construct: also called Cy5.5-labeled murine thrombospondin-1; Cy5.5 labeled TSP-1
Kind of test: flow cytometry of CT26.CL25 cells after incubation with mouse RBC loaded with 5 µg labeled murine TSP-1. As to the method:
(§1) Each cell line, grown independently in a cell culture dish, was detached from the dish with trypsin-EDTA. The cells from each dish were then washed with DPBS, counted, and diluted to 10⁵ cells/100 μl PBS. 4 μl of the FAM-vSIRPα-siRNA/RBC resuspension (totaling 10³ RBC and 100 pmol of the vSIRPα-siRNA) was mixed, independently, with each 100 μl dilution of CT26.CL25 cells and CaCO2 cells. Each mixture was incubated for 30 minutes at room temperature (20-25° C.).
Murine TSP-1 (7859-TH, R&D Systems) labeled with Cy5.5 was tested for its ability to be transferred from RBC to CD47 present on the surface of CT26.CL25 cells. Experiments were carried out as in Example 2, except that 5 μg of Cy5.5 labeled TSP-1, rather than 500 pmol of conjugate, was incubated with the RBC.
Background: In flow cytometry, cells or beads pass a laser one at a time.

Test [2] addresses B1. In words: flow cytometry of CT26.CL25 cells after incubation with mouse RBC loaded with 200 pmol labeled vSIRPα. On the procedure: as §1
vSIRPα labeled with Cy5.5 was tested for its ability to be transferred from RBC to CD47 present on the surface of CT26.CL25 cells. Experiments were carried out as in Example 2, except that 200 pmol of the labeled vSIRPα, rather than 500 pmol of conjugate, was incubated with the RBC.

T1 sequence (P35441 19-1170 limits assumed): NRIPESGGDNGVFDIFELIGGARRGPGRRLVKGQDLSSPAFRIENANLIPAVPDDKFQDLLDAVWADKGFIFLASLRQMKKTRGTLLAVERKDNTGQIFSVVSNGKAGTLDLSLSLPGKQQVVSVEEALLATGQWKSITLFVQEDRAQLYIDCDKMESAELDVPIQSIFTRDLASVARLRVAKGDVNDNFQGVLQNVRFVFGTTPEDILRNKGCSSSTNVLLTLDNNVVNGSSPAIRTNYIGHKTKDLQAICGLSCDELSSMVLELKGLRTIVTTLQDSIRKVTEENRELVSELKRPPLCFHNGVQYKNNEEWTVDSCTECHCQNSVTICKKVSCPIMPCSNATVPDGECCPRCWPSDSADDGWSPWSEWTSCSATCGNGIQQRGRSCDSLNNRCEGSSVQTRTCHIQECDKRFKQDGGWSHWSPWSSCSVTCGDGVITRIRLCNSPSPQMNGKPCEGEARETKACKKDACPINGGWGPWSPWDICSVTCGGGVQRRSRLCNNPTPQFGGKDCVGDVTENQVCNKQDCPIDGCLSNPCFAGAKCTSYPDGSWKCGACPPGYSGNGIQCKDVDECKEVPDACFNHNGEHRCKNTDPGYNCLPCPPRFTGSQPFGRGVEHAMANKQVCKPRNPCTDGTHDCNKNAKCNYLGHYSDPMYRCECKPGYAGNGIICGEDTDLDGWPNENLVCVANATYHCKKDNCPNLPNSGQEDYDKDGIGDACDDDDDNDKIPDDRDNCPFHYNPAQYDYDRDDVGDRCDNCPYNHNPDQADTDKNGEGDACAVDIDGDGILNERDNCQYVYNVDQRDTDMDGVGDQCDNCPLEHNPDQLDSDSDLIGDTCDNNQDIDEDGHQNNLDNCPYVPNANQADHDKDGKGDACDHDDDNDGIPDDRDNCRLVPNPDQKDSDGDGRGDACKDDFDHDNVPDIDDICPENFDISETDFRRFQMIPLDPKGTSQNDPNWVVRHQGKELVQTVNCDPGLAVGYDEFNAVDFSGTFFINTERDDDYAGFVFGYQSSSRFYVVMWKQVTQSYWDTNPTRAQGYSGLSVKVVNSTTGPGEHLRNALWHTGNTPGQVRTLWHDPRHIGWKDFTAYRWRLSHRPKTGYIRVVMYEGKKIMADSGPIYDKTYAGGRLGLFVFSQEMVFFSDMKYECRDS

As to B1, the binding result in test [1] is “binds”.

B2: vSIRPα labeled with Cy5.5 (receptor)
chain: EEELQIIQPDKSVLVAAGETATLRCTITSLFPVGPIQWFRGAGPGRVLIYNQRQGPFPRVTTVSDTTKRNNMDFSIRIGNITPADAGTYYCIKFRKGSPDDVEFKSGAGTELSVRAKP
modifications: Cy5.5 label (site not stated)
notes: also called Cy5.5-labeled vSIRPα
B2: in test [2], the binding result was “binds”.
